Assay results taken from the supplement of paper PMC11246515.
± gives the standard deviation of the averaged measurements.

Assay: total protein half-life in vivo (active degradation + dilution); higher = more stable protein
[1] = E. coli NCM3722 delta-clpP delta-lon delta-hslV, growth: N-lim chemostat, doubling time 6 h
[2] = E. coli NCM3722 delta-smpB, growth: N-lim chemostat, doubling time 6 h
[3] = wild type E. coli NCM3722, growth: C-lim chemostat, doubling time 3 h
[4] = wild type E. coli NCM3722, growth: C-lim chemostat, doubling time 6 h
[5] = wild type E. coli NCM3722, growth: C-lim chemostat, doubling time 12 h
[6] = E. coli NCM3722 delta-clpP, growth: N-lim chemostat, doubling time 6 h
[7] = E. coli NCM3722 delta-hslV, growth: N-lim chemostat, doubling time 6 h
[8] = E. coli NCM3722 delta-lon, growth: N-lim chemostat, doubling time 6 h
[9] = wild type E. coli NCM3722, growth: N-lim chemostat, doubling time 6 h
[10] = wild type E. coli NCM3722, growth: N-lim chemostat, doubling time 12 h
[11] = wild type E. coli NCM3722, growth: P-lim chemostat, doubling time 6 h
[12] = wild type E. coli NCM3722, growth: P-lim chemostat, doubling time 12 h

| Substance | total protein half-life in vivo [1] [h] | total protein half-life in vivo [2] [h] | total protein half-life in vivo [3] [h] | total protein half-life in vivo [4] [h] | total protein half-life in vivo [5] [h] | total protein half-life in vivo [6] [h] | total protein half-life in vivo [7] [h] | total protein half-life in vivo [8] [h] | total protein half-life in vivo [9] [h] | total protein half-life in vivo [10] [h] | total protein half-life in vivo [11] [h] | total protein half-life in vivo [12] [h] |
| --- | --- | --- | --- | --- | --- | --- | --- | --- | --- | --- | --- | --- |
| MSHYHEQFLKQNPLAVLGVLRDLHKAAIPLRLSWNGGQLISKLLAITPDKLVLDFGSQAEDNIAVLKAQHITITAETQGAKVEFTVEQLQQSEYLQLPAFITVPPPTLWFVQRRRYFRISAPLHPPYFCQTKLADNSTLRFRLYDLSLGGMGALLETAKPAELQEGMRFAQIEVNMGQWGVFHFDAQLISISERKVIDGKNETITTPRLSFRFLNVSPTVERQLQRIIFSLEREAREKADKVRD | 5.94 ± 0.77 | > 8 | 1.21 ± 0.24 | 1.87 ± 0.3 | 2.88 ± 0.52 |  |  |  |  |  |  |  |
| MTQLAIGKPAPLGAHYDGQGVNFTLFSAHAERVELCVFDANGQEHRYDLPGHSGDIWHGYLPDARPGLRYGYRVHGPWQPAEGHRFNPAKLLIDPCARQIDGEFKDNPLLHAGHNEPDYRDNAAIAPKCVVVVDHYDWEDDAPPRTPWGSTIIYEAHVKGLTYLHPEIPVEIRGTYKALGHPVMINYLKQLGITALELLPVAQFASEPRLQRMGLSNYWGYNPVAMFALHPAYACSPETALDEFRDAIKALHKAGIEVILDIVLNHSAELDLDGPLFSLRGIDNRSYYWIREDGDYHNWTGCGNTLNLSHPAVVDYASACLRYWVETCHVDGFRFDLAAVMGRTPEFRQDAPLFTAIQNCPVLSQVKLIAEPWDIAPGGYQVGNFPPLFAEWNDHFRDAARRFWLHYDLPLGAFAGRFAASSDVFKRNGRLPSAAINLVTAHDGFTLRDCVCFNHKHNEANGEENRDGTNNNYSNNHGKEGLGGSLDLVERRRDSIHALLTTLLLSQGTPMLLAGDEHGHSQHGNNNAYCQDNQLTWLDWSQASSGLTAFTAALIHLRKRIPALVENRWWEEGDGNVRWLNRYAQPLSTDEWQNGPKQLQILLSDRFLIAINATLEVTEIVLPAGEWHAIPPFAGEDNPVITAVWQGPAHGLCVFQR | 5.66 ± 0.38 | 5.62 ± 0.72 | 3.31 ± 0.7 | 5.47 ± 0.28 | 10.5 ± 0.48 | 5.35 ± 0.093 | 5.23 ± 0.074 | 6.01 ± 0.45 | 5.46 ± 0.36 | 10.2 ± 0.7 | 6.42 ± 0.68 | 11.6 ± 1.6 |
| MKTSLFKSLYFQVLTAIAIGILLGHFYPEIGEQMKPLGDGFVKLIKMIIAPVIFCTVVTGIAGMESMKAVGRTGAVALLYFEIVSTIALIIGLIIVNVVQPGAGMNVDPATLDAKAVAVYADQAKDQGIVAFIMDVIPASVIGAFASGNILQVLLFAVLFGFALHRLGSKGQLIFNVIESFSQVIFGIINMIMRLAPIGAFGAMAFTIGKYGVGTLVQLGQLIICFYITCILFVVLVLGSIAKATGFSIFKFIRYIREELLIVLGTSSSESALPRMLDKMEKLGCRKSVVGLVIPTGYSFNLDGTSIYLTMAAVFIAQATNSQMDIVHQITLLIVLLLSSKGAAGVTGSGFIVLAATLSAVGHLPVAGLALILGIDRFMSEARALTNLVGNGVATIVVAKWVKELDHKKLDDVLNNRAPDGKTHELSS [P0A830] |  | 4.23 |  | 5.59 ± 0.43 | 10.7 ± 0.59 |  | 3.58 |  | 5.77 |  | 5.05 | 8.47 |
| MSIKQMPGRVLISLLLSVTGLLSGCASHNENASLLAKKQAQNISQNLPIKSAGYTLVLAQSSGTTVKMTIISEAGTQTTQTPDAFLTSYQRQMCADPTVKLMITEGINYSITINDTRTGNQYQRKLDRTTCGIVKA |  |  |  |  |  |  |  |  | > 8 |  | 3.91 ± 0.68 | 7.3 ± 0.4 |
| MEIYENENDQVEAVKRFFAENGKALAVGVILGVGALIGWRYWNSHQVDSARSASLAYQNAVTAVSEGKPDSIPAAEKFAAENKNTYGALASLELAQQFVDKNELEKAAAQLQQGLADTSDENLKAVINLRLARVQVQLKQADAALKTLDTIKGEGWAAIVADLRGEALLSKGDKQGARSAWEAGVKSDVTPALSEMMQMKINNLSI | 5.43 ± 0.11 | 5.52 ± 0.16 | 2.83 ± 0.14 | 4.7 ± 0.38 | 10.3 ± 0.96 | 5.4 ± 0.35 | 5.99 ± 0.76 | 6.64 ± 0.78 | 5.8 ± 0.6 | 11.9 ± 0.17 | 4.55 ± 0.6 | 8.84 ± 0.18 |
| MPGRFELKPTLEKVWHAPDNFRFMDPLPPMHRRGIIIAAIVLVVGFLLPSDDTPNAPVVTREAQLDIQSQSQPPTEEQLRAQLVTPQNDPDQVAPVAPEPIQEGQPEEQPQTTQTQPFQPDSGIDNQWRSYRVEPGKTMAQLFRDHGLPATDVYAMAQVEGAGKPLSNLQNGQMVKIRQNASGVVTGLTIDTGNNQQVLFTRQPDGSFIRAR | 5.6 ± 0.12 | 6.12 ± 0.68 |  | 5 ± 0.64 | 9.18 ± 0.36 | 6.35 ± 0.2 | 5.57 ± 0.45 | 6.65 ± 0.27 | 5.79 ± 1.1 | 11.4 ± 0.3 |  | 8.86 ± 0.21 |
| MKWDWIFFDADETLFTFDSFTGLQRMFLDYSVTFTAEDFQDYQAVNKPLWVDYQNGAITSLQLQHGRFESWAERLNVEPGKLNEAFINAMAEICTPLPGAVSLLNAIRGNAKIGIITNGFSALQQVRLERTGLRDYFDLLVISEEVGVAKPNKKIFDYALEQAGNPDRSRVLMVGDTAESDILGGINAGLATCWLNAHHREQPEGIAPTWTVSSLHELEQLLCKH [P0A8Y1] | 5.28 ± 0.098 | 0.471 ± 0.024 | 0.631 ± 0.016 | 0.671 | 2.97 | 0.513 |  | 0.534 | 1.11 | 1.51 | 0.949 ± 0.33 |  |
| P0AAG3 | 6.26 ± 0.74 | 5.56 ± 0.4 | 3.02 ± 0.25 | 6.06 ± 0.07 | 11.3 ± 0.26 | 6.4 ± 1.1 | 6.83 ± 1.4 | 6.053 ± 0.0072 | 5.82 ± 0.16 | 11.6 ± 0.28 | 5.56 ± 0.15 | 11.4 ± 1.6 |
| MSQVTENKVISAPVPMTPLQEFWHYFKRNKGAVVGLVYVVIVLFIAIFANWIAPYNPAEQFRDALLAPPAWQEGGSMAHLLGTDDVGRDVLSRLMYGARLSLLVGCLVVVLSLIMGVILGLIAGYFGGLVDNIIMRVVDIMLALPSLLLALVLVAIFGPSIGNAALALTFVALPHYVRLTRAAVLVEVNRDYVTASRVAGAGAMRQMFINIFPNCLAPLIVQASLGFSNAILDMAALGFLGMGAQPPTPEWGTMLSDVLQFAQSAWWVVTFPGLAILLTVLAFNLMGDGLRDALDPKLKQ [P0AEG1] | 6.11 | 5.93 ± 0.46 | 3.47 | > 8 | 12.6 ± 2.1 | 5.53 ± 0.37 | 6.45 | 6.14 ± 1 | 6.39 ± 0.51 | 10.9 ± 2 | 6.16 ± 0.14 | 10.8 ± 2.3 |
